Key:
[1] = molecular target: transient receptor potential vanilloid 1 (TRPV1), rat, in primary neonatal cardiomyocytes (rat) (UniProt O35433); test: cell-based or functional assay
Chain of transient receptor potential vanilloid 1 (TRPV1), rat, in primary neonatal cardiomyocytes (rat) (O35433 whole entry): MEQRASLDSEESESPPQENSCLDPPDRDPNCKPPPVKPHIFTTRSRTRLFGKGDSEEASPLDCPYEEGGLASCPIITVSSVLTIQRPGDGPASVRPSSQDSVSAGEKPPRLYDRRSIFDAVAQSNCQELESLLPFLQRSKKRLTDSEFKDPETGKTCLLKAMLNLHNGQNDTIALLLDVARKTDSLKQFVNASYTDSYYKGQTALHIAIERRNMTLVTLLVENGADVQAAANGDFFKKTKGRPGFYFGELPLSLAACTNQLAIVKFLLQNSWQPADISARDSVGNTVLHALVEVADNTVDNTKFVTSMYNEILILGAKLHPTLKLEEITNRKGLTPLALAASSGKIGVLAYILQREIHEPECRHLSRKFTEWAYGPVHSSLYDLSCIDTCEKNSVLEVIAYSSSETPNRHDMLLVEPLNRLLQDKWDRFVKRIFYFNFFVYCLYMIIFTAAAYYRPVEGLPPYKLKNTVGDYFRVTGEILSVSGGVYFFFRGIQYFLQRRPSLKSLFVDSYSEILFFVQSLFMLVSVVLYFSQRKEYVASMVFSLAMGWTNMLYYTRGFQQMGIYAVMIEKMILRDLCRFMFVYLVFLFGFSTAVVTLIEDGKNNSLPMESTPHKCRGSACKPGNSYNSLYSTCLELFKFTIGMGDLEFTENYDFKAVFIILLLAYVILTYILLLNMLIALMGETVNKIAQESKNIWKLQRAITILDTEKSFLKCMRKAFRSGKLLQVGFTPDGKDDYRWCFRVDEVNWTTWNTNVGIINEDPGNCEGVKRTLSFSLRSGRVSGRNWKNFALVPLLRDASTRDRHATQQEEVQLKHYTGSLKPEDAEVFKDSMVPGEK

Row | Substance | fold decrease in negative change in mitochondrial membrane potential caused by capsaicin (1 µM) in primary neonatal cardiomyocytes, with V1-cal (1 µM) given 10 minutes before [1] | calcineurin activity by free phosphate release from a calcineurin substrate (colorimetric, peptide at 10 µM, against TAT at 10 µM) (V1-cal)
1 | calcineurin, endogenous in rat primary neonatal cardiomyocytes (enzyme) | 10 fold | 
2 | recombinant calcineurin |  | In comparison to TAT, V1-cal reduced the ability for calcineurin to dephosphorylate a calcineurin substrate as measured by free phosphate release in vitro

Reference: patent publication US20190085040A1
